Experimental data: US20230303708A1

Target: hBCMA-41BB-CD3 CAR (CAR-PMC750)
Assay: FACS of CAR-T cells stained with biotinylated goat anti-mouse F(ab)'2 and PE-streptavidin, day 9 of expansion

Sequence of hBCMA-41BB-CD3 CAR (CAR-PMC750) (chain, as listed by the source): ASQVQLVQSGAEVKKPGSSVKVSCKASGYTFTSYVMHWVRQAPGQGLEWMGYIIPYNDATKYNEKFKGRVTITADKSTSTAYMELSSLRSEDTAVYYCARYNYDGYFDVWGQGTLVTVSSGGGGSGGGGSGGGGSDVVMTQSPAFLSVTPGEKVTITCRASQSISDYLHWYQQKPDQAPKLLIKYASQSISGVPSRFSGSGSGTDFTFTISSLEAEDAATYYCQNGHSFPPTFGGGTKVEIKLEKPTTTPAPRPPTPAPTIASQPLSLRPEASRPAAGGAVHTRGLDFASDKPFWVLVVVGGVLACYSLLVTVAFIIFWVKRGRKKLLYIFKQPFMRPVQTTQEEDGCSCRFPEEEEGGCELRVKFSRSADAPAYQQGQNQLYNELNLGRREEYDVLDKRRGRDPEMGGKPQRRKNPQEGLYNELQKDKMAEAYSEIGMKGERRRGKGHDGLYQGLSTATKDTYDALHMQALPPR

percent CAR-positive cells: > 70%
Substance: biotin-conjugated goat anti-mouse F(ab)'2 (antibody)
